Assay [1] addresses T1, recombinant human Dipeptidyl Peptidase 8 (DPP8) (human, UniProt Q6V1X1 1-898, limits assumed).
T1 construct: Bought active enzyme; also called rhDPP8; BPS Bioscience 80080
Put plainly: ELISA: enzyme held on the plate by an anti-tag antibody, HRP-labelled NI-206.82C2 titrated [continued) E]. From the text: Active recombinant human enzymes evaluated in this assay include: Fibroblast Activation Protein (FAP; Sino Biologicals, 10464-H07H), Dipeptidyl Peptidase IV (DPPIV, BPS Bioscience 80040), Dipeptidyl Peptidase 8 (DPP8, BPS Bioscience 80080), Dipeptidyl Peptidase 9 (DPP9, BPS Bioscience 80080), and Prolyl Oligopeptidase/Prolyl Endopeptidase (POP/PREP, BPS Bioscience 80105). Each recombinant peptidase was expressed with a purification tag, and attached to the 96 well ELISA plate using either a mouse anti-Histidine antibody (CloneTech), or a mouse anti-Glutathione S-transferase (GST, Sino Biologicals, 111213-MM02) tag antibody. […] H-Gly-Pro-AMC (ATT Bioquest, 13450) was used to validate the presence and activity of DPP4, DPP9, and DPP8. Z-Gly-Pro-AMC (BaChem, 11145) was used to evaluate the activity of FAP and POP/PREP. […] Following a washing step, bound antibody was detected using 3,3′,5,5′-Tetramethylbenzidine (TMB) substrate.
Background: ELISA stands for enzyme-linked immunosorbent assay.

For assay [2], the target named is T2, recombinant human Fibroblast Activation Protein (FAP) with N-terminus 6x histidine tag (human, UniProt Q12884 26-760).
T2 construct: Bought protein; also called rFAP; rhFAP
T2 sequence: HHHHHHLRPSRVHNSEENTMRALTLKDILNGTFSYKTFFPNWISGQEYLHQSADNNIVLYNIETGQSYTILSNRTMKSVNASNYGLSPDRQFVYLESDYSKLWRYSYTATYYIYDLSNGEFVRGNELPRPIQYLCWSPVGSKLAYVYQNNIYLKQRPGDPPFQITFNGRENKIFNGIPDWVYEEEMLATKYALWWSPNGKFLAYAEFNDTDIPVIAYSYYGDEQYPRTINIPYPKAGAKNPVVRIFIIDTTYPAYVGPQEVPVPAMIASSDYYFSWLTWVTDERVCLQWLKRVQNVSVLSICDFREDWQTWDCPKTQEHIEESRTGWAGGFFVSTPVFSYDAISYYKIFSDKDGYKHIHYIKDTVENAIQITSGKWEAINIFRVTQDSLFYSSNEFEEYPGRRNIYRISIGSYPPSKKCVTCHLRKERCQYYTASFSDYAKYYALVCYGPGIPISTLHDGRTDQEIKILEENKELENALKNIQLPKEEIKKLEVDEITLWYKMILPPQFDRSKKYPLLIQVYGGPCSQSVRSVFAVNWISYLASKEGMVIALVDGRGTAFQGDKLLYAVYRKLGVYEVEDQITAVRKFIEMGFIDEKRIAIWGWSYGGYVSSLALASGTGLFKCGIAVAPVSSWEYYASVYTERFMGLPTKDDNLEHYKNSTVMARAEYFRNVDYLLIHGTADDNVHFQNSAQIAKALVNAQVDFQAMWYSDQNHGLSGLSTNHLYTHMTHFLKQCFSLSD
Put plainly: direct ELISA: rFAP coated directly on the plate, antibody titrated, OD 450 nm.

Assay [3] concerns the target T3, recombinant human Prolyl Oligopeptidase/Prolyl Endopeptidase (POP/PREP) (human, UniProt P48147 1-710).
T3 construct: Bought active enzyme; also called rhPOP/PREP; BPS Bioscience 80105
T3 sequence (looked up): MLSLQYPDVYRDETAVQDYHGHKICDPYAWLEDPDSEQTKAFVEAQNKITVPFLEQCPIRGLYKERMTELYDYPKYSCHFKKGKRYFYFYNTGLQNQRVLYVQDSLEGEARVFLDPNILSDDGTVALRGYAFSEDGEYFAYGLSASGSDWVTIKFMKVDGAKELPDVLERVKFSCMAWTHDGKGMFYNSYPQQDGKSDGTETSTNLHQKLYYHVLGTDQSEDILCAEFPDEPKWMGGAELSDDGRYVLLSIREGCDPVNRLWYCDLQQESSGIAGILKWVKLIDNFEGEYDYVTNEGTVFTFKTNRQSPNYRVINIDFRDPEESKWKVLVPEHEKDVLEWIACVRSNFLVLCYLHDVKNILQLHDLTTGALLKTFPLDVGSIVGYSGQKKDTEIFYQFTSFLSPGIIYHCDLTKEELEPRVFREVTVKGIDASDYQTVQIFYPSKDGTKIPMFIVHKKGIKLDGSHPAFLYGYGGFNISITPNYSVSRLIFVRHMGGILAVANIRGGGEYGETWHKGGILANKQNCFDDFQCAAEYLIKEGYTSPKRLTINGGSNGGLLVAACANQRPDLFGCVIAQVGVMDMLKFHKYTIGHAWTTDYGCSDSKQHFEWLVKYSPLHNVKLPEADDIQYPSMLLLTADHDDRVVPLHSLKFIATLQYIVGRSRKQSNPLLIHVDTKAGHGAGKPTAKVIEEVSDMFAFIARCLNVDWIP
The assay can be described thus: sandwich ELISA: F19 coated as capture antibody, homologue titrated, HRP-labelled NI-206.82C2 as detection antibody; no signal means that no F19/antigen/82C2 sandwich formed. As for the experimental part:
(§1) The coating solution was removed and the plate was blocked with 40 μL 2% BSA in PBS blocking buffer for 1 h at room temperature and then discarded. 30 uL sample solution was then added. Sample solutions included recombinant human FAP standard (FIG. 17A), human serum at varying dilutions (FIG. 17B), FAP homologues (FIG. 17C), serum samples from healthy patients (FIGS. 18 and 19), serum samples patients with metastatic colorectal cancer (FIG. 18), serum samples from patients with cardiovascular disease (FIG. 19), sodium citrate plasma samples from healthy patients (FIG. 20), and sodium citrate samples from patients with symptomatic carotid atherosclerotic plaques (FIG. 20). Sample solutions were added at a total volume of 30 μL. The plate was washed three times with 40 μL PBS and blotted dry. […] The plate was then washed again three times with 3×PBS and blotted dry. 30 μL TMB (3,3′,5,5′-Tetramethylbenzidine) solution was then added to each well and allowed to develop for 5-10 minutes at room temperature. The reaction was then stopped by the addition of 30 μL 1M H2SO4, and absorbance at 450 nm was read with a plate reader.

Assay [4] deals with T4, recombinant human Dipeptidyl Peptidase IV (DPPIV) (human, UniProt P27487 29-766, limits assumed).
T4 construct: Bought active enzyme; also called rhDPPIV; DPP4
T4 sequence (P27487 29-766 limits assumed): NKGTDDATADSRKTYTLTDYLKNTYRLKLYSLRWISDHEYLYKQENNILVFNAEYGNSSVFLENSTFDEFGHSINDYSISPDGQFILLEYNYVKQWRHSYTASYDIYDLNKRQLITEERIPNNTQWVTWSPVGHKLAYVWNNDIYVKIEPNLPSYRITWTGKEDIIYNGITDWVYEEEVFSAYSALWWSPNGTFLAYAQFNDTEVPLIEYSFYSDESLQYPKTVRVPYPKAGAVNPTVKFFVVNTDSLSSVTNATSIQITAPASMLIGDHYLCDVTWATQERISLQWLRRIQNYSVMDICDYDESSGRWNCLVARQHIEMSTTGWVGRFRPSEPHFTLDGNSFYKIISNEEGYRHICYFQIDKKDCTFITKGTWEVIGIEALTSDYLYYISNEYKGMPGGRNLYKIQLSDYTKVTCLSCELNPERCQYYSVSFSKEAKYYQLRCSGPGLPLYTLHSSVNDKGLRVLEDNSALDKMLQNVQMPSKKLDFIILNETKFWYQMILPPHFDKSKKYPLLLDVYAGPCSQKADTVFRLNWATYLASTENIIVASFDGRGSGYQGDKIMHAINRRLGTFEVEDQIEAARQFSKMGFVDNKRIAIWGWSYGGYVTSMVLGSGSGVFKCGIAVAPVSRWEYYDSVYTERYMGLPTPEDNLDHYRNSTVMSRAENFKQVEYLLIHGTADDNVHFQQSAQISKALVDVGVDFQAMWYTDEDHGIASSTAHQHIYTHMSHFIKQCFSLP
The assay is described as above. As for the experimental part:
as §1

Assay [5] addresses T5, recombinant human Dipeptidyl Peptidase 9 (DPP9) (human, UniProt Q86TI2 1-863, limits assumed).
T5 construct: Bought active enzyme; also called rhDPP9
Described as above. The method, then: as §1

T5 sequence (Q86TI2 whole entry): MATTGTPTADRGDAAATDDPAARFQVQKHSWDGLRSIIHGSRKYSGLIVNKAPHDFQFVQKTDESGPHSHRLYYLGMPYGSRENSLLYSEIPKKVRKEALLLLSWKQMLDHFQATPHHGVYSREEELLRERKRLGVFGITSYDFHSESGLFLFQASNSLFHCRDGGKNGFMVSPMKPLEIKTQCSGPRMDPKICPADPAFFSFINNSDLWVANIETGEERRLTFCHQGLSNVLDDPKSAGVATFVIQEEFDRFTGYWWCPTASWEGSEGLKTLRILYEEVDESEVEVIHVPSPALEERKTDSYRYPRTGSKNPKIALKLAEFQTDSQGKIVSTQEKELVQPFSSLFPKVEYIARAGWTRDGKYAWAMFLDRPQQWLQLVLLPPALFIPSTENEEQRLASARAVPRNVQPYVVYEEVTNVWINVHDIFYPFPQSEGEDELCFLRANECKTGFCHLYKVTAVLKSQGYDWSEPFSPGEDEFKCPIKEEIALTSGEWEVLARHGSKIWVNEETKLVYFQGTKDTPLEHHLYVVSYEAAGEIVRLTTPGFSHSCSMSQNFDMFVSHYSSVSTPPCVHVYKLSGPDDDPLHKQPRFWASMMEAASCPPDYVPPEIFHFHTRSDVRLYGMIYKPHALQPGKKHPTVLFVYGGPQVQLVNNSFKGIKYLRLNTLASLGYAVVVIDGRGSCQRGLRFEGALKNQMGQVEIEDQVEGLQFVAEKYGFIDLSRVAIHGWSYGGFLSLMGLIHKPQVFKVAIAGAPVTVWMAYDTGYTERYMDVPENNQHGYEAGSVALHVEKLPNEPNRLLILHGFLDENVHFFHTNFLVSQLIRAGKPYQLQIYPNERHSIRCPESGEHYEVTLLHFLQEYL
T1 sequence (Q6V1X1 whole entry): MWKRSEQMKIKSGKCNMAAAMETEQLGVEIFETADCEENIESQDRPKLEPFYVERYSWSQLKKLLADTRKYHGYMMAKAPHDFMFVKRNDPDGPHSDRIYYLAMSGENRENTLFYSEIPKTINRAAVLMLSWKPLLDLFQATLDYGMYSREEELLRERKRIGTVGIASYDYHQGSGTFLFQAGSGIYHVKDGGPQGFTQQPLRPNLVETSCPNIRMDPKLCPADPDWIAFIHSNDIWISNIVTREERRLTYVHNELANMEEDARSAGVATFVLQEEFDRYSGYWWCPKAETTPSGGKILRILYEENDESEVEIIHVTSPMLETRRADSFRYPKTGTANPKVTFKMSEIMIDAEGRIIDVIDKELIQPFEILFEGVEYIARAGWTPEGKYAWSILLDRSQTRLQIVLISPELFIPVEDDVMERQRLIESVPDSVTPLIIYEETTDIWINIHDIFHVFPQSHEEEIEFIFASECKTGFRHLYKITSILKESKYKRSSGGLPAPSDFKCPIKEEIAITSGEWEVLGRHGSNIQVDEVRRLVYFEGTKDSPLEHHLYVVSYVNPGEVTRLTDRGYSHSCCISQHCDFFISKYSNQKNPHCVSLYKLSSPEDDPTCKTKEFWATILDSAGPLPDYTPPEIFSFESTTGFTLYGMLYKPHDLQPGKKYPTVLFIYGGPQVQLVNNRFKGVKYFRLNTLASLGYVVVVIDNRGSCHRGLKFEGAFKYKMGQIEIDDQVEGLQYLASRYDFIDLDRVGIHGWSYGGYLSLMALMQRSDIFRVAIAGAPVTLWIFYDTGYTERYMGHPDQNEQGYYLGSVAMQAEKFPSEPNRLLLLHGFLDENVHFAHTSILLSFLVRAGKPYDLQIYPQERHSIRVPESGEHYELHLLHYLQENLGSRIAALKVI

B1: NI-206.82C2 (antibody, V domains shown)
VH: QVQLQQSGPGLVKPSQTLSLTCAISGDSVSSNSVTWNWIRQSPSRGLEWLGRTYYRSKWYNDYAVSVKGRITINPDTSKNQFYLQLKSVTPEDAAVYYCARDSSILYGDYWGQGTLVTVSS
VL: QAVLTQPSSLSASPGASASLTCTLPSGINVGTYRIFWFQQKPGSPPQYLLSYKSDSDNHQGSGVPSRFSGSKDASANAGILLISGLQSEDEADYYCMIWHSSAWVFGGGTKLTVL
notes: Recombinantly expressed as complete human IgG1 with a lambda light chain; HRP-labelled in the homologue and sandwich ELISAs, Cy5-labelled in flow cytometry; also called HRP-labelled 82C2; Cy5 labelled 82C2
As for B1, the binding result is “no binding” in assay [1], “no binding (tested: 250 ng/mL)” in assay [3], “no binding (tested: 250 ng/mL)” in assay [4] and “no binding (tested: 250 ng/mL)” in assay [5]. The half-maximal effective concentration (EC50) (commonly the concentration that produces a half-maximal response) in assay [2] was found to be 0.608 nM.

Values taken from patent US20180022822A1 (MABIMMUNE DIAGNOSTICS, published 2018).
